From patent US8022177B2, “Peptides and calcium regulation in mammalian cells” (The Board of Trustees of the University of Illinois, priority 2005, dated 2011)

What was measured:
Cav3.1 = target: T1, Cav3.1 (Homo sapiens, UniProt O43497); assay: Co-immunoprecipitation of Flag-tagged γ subunits with Cav3.1; format: binding
T1 construct: expressed in transfected cells; host or cells: HEK-293, stably transfected
Procedure: Immunoprecipitation and Immunodetection. HEK-293 cells stably transfected with Cav3.1 were grown in T25 tissue culture flasks and transiently transfected when 70-90% confluent. Five μg of each plasmid expression vector was transfected per T25 flask using 15 μL Lipofectamine 2000 reagent (Invitrogen, Carlsbad, Calif.) as per the manufacturer's recommendations. Cells were processed for immunoprecipitation assay and immunoblot analysis 24 hr post-transfection. Cells were washed and scraped from flasks with ice cold PBS (without Ca^2+ or Mg^+) and centrifuged for 5 min at 500×g at 4° C. Cell pellets were resuspended in 1.0 mL lysis buffer (50 mM Tris HCl, 150 mM NaCl, 1 mM EDTA, 2% Triton X-100, and 1:100 Protease Inhibitor Cocktail Set III (EMD Biosciences, San Diego, Calif.)) and incubated with constant mixing for 1 hr at 4° C. Samples were cleared by centrifugation at 10,000×g for 2 min at 4° C. Equal amounts of cell lysate were added to a 75 μL bed volume of anti-FLAG M2 affinity gel (Sigma, St. Louis, Mo.) that was washed three times with lysis buffer. Samples were immunoprecipitated with constant mixing overnight at 4° C. Beads were washed three times with lysis buffer and incubated in sample buffer containing 1% SDS, 50 mM DTT, and 10% glycerol for 30 minutes at 25° C. […]

Cav2.3 = target: T2, Cav2.3 (Homo sapiens, UniProt Q15878); assay: Calcium current density in heterologous expression system, Cav2.3; format: cell-based; conditions: heterologous expression systems
T2 construct: expressed in transfected cells
T2 sequence (Q15878 whole entry): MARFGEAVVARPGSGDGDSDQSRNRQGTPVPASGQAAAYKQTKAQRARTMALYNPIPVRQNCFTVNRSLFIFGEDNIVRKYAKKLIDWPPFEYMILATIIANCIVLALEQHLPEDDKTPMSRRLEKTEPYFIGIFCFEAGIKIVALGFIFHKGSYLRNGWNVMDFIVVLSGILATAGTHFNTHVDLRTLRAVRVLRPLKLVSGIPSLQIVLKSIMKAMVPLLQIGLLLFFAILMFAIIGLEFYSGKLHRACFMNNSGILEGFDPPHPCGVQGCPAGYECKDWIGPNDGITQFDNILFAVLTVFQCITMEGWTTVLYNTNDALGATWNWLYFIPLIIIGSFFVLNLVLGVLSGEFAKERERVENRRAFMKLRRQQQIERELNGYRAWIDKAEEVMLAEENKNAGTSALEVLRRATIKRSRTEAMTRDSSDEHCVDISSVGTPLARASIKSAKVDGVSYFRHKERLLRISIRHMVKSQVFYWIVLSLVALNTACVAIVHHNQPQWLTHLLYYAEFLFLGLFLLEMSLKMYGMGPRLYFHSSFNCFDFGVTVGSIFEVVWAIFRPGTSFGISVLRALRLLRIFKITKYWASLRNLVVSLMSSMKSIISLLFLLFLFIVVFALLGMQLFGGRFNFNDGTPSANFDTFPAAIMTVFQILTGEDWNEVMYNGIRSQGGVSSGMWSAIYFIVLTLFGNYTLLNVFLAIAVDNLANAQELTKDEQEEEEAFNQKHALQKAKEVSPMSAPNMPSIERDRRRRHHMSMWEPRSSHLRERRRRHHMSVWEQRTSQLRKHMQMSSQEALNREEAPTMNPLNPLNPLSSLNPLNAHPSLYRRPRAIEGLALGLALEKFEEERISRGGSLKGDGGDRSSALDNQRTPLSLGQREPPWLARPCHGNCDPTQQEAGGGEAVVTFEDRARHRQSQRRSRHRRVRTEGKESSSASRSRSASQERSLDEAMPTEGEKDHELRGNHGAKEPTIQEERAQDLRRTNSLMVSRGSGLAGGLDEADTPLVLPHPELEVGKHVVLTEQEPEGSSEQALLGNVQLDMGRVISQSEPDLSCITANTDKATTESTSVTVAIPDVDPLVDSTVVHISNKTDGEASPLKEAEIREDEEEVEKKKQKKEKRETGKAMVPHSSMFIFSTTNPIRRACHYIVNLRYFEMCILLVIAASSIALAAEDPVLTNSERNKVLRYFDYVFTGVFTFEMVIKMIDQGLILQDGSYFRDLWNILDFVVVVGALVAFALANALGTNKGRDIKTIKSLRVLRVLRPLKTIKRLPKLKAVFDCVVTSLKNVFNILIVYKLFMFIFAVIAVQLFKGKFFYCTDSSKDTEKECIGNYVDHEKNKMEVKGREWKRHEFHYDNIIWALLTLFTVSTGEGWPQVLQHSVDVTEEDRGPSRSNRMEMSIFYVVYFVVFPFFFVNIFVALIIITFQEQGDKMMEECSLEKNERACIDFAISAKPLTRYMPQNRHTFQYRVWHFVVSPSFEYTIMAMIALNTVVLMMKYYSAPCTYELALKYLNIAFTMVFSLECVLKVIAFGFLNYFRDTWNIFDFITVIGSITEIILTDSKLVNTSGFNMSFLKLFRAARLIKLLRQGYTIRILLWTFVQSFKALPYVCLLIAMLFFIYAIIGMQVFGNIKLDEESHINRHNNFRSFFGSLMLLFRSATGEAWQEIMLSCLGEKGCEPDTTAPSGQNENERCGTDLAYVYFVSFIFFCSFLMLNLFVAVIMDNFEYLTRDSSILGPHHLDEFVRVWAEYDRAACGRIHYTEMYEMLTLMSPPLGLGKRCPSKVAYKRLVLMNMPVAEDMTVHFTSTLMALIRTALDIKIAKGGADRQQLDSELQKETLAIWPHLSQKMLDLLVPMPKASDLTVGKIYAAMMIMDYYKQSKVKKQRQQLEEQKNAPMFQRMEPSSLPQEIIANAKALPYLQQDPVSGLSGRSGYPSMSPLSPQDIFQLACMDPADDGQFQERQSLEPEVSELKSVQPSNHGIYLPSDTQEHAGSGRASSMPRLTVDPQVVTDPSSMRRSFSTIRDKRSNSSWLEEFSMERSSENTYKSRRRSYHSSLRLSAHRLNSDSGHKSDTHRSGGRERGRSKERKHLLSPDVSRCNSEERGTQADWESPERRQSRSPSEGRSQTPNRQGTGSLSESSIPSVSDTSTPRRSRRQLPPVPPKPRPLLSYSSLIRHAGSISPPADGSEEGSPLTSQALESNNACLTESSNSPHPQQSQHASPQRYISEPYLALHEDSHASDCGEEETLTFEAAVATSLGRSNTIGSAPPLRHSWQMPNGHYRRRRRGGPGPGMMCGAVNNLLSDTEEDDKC

Cav3.2 = target: T3, Cav3.2 (Homo sapiens, UniProt O95180); assay: Calcium current density in heterologous expression system, Cav3.2; format: cell-based; conditions: heterologous expression systems
T3 construct: expressed in transfected cells; host or cells: heterologous expression system (HEK-293 stably transfected with Cav3.2 is mentioned)

T1 sequence (O43497 whole entry): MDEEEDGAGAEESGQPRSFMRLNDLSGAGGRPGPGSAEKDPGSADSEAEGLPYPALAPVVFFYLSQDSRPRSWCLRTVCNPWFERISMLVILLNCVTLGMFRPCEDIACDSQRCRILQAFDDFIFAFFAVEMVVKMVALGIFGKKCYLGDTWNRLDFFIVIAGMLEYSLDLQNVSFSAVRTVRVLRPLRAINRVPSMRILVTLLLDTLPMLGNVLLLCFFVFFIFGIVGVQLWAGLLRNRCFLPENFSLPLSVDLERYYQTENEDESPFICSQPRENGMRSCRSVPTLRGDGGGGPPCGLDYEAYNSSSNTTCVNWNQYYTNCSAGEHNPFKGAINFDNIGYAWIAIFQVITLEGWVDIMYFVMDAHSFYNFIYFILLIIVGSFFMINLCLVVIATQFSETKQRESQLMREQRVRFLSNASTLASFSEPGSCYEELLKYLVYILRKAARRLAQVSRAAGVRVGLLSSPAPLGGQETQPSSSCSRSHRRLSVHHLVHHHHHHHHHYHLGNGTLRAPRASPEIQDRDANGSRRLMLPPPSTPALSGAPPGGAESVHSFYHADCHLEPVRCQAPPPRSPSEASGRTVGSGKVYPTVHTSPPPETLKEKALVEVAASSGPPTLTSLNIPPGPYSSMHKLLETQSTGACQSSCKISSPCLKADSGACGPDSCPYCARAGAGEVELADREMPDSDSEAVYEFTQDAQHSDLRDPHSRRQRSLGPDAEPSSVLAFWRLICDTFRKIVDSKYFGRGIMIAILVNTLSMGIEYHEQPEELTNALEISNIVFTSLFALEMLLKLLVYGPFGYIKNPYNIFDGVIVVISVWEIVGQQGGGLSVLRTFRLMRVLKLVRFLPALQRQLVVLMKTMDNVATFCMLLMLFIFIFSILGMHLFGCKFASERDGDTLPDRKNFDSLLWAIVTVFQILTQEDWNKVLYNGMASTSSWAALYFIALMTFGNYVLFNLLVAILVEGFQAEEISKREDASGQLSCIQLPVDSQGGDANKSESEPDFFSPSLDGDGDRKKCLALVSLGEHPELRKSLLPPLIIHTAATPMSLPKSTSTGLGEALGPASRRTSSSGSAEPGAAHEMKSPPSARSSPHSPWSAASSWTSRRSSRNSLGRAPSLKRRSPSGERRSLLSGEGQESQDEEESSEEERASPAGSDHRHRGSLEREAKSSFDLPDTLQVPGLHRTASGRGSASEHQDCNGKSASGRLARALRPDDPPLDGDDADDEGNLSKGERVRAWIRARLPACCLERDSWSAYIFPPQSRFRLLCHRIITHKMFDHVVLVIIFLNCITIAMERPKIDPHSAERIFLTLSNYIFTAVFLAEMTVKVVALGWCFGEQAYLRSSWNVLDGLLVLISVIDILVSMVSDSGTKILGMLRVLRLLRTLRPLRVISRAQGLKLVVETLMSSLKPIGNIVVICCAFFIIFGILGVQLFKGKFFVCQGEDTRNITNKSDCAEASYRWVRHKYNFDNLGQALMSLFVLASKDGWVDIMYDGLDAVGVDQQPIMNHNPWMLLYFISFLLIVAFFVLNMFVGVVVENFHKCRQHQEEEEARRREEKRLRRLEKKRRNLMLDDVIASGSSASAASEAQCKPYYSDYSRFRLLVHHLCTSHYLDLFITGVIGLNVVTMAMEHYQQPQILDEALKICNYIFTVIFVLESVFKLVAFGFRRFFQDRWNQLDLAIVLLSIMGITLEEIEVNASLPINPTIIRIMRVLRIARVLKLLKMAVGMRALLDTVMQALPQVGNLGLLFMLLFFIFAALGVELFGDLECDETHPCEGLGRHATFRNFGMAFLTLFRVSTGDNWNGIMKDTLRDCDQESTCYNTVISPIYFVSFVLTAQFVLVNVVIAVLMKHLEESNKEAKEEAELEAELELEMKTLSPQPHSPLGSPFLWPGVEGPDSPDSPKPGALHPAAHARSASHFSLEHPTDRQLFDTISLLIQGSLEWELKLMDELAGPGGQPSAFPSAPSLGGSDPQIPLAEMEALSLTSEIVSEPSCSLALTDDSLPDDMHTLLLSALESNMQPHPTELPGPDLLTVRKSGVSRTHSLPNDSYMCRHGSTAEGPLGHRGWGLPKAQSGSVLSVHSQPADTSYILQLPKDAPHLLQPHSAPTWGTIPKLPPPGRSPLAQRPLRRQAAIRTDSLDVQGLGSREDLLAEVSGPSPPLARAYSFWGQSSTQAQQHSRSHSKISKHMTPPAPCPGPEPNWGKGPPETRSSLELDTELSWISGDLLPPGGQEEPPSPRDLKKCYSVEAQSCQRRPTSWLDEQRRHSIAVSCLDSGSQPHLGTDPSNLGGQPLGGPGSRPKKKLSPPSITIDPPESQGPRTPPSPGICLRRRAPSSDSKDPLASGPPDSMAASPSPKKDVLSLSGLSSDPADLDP

| Molecule | Interaction with Cav3.1 relative to γ6 (Cav3.1; Cav3.1 in anti-Flag immunoprecipitates, FIG. 36B) | Co-immunoprecipitation with Cav3.1 (Cav3.1; FIG. 36A) | Effect on Cav2.3 calcium current density (Cav2.3) | Effect on Cav3.2 calcium current density (Cav3.2) |
| --- | --- | --- | --- | --- |
| γ4: rat calcium channel γ4 subunit (AF361341), SEQ ID NO:47 (protein, listed as Rattus norvegicus) MVRCDRGLQMLLTTAGAFAAFSLMAIAIGTDYWLYSSAHICNGTNLTMDDGPPPRRARGDLTHSGLWRVCCIEGIYKGHCFRINHFPEDNDYDHDSSEYLLRIVRASSVFPILSTILLLLGGLCIGAGRIYSRKNNIVLSAGILFVAAGLSNIIGIIVYISSNTGDPSDKRDEDKKNHYNYGWSFYFGALSFIVAETVGVLAVNIYIEKNKELRFKTKREFLKASSSSPYSRMPSYRYRRRRSRSSSRSTEASPSRDASPVGLKITGAIPMGELSMYTLSREPLKVTTAASYSPDQDAGFLQMHDFFQQDLKEGFHVSMLNRRTTPV | approximately 10 % of γ6 | – | – | – |
| γ6L: rat calcium channel γ6 subunit, long isoform (AF361343), SEQ ID NO:48 (protein, listed as Rattus norvegicus) MMWSNFFMQEEDRRRTAVGRRRAQEQQNLGLTPEREGKIKLGLLVAIVGATLAVLAVGTEFWVELNTYKTNGSAVCEAAHLGLWKVCIKRLWQADVPAGRETCGPAELPGEANCTYFKFFTTGENAHIFQRTTKKEVNLAAAVIAVLGLTAMALGCLCVIMVLSKGAEFLLRLGAVCFGLSGLLLFVSLEVFRHSVRALLQGVNPETPPAPRLAYEYSWSLGCGVGAGLILLLGGVCFLLLTLPSWPWRSLCPKRGGPTA | – | robust coimmunoprecipittion | decreased | decreased |
